The source of these data is publication PMC4747207 (2015).

The assay addresses GST-Skp1 (Homo sapiens (Human), UniProt P63208). As to the kind of experiment: GST pull-down, Western blot. (In general: A western blot detects proteins with antibodies after separation by electrophoresis.)

Sequence of GST-Skp1 (P63208 whole entry): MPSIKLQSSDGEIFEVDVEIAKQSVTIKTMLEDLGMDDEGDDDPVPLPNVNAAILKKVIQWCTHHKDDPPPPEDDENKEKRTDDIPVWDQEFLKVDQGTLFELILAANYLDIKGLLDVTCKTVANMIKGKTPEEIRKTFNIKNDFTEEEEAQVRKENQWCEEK

B1: Recombinant human MAGE-C2 protein (protein)
chain: MPPVPGVPFRNVDNDSPTSVELEDWVDAQHPTDEEEEEASSASSTLYLVFSPSSFSTSSSLILGGPEEEEVPSGVIPNLTESIPSSPPQGPPQGPSQSPLSSCCSSFSWSSFSEESSSQKGEDTGTCQGLPDSESSFTYTLDEKVAELVEFLLLKYEAEEPVTEAEMLMIVIKYKDYFPVILKRAREFMELLFGLALIEVGPDHFCVFANTVGLTDEGSDDEGMPENSLLIIILSVIFIKGNCASEEVIWEVLNAVGVYAGREHFVYGEPRELLTKVWVQGHYLEYREVPHSSPPYYEFLWGPRAHSESIKKKVLEFLAKLNNTVPSSFPSWYKDALKDVEERVQATIDTADDATVMASESLSVMSSNVSFSE
B1: the binding result is “no binding”.
